Results as given in the domain aggregation screens of Martell et al. (2025).

Experiment: soluble fraction after stress (log2 fold change); higher = more stays soluble; pooled small domains, quantitative proteomics
Settings: stress: 50 degC
Procedure, shortened: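 After stress at 50°C, the amount of each protein still soluble was measured. This was done on pooled custom libraries of small protein domains, using high-throughput quantitative proteomics. The figure given is a base-two log fold change and stands for aggregation propensity, with higher values meaning more protein stays in solution.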

| Sequence | soluble fraction (log2) |
| --- | --- |
| HMGEGRVRLAQEAANRFMTAMAGDRPGFEEAGRALFAGDRARFHAETEGWPEDIRDHARRLAEPALQ | 0.0288 |
| HMGEIILVPDVKAQGVSDARYTLNQAGLDAVIADSSYNRNSPPGAVLEQMPAPGSKVKSGHAIYLIINTT | 0.053 |
| HMGELTSILVATKQIEPGETLSSSNTQVKSWISDLIPEGAITNPESVMGRTVSSVIGVGMPVVSLHLR | 0.0954 |
| HMGELVIPPLRERTVVDAVAEAERLGFVVQVEPVASSLPEGRVLGQSPEPGTRARKSQVVVLQVSRG | -0.148 |
| HMGEPLTVVAAAGGDRLDRWLAGQLAGRSRAEIQRWIEAGQVTLAGRSLKASYRLSAGDAIDVAIPPPE | -0.129 |
| HMGEPVEIEEPITVRSLSEALGLKSSAIISHLMRQGVFATINQNLDKETAELIAAEYGIELRIK | 0.00995 |
| HMGETDDDFRELEEFVEKTKFDKLGTFMYSKEEGTPAARLPEQIHGNTKKSRYNKIMSIQQKVSNEN | -0.0112 |
| HMGETPEILRDWEAAQNAVNDMLSKYAPGGYMGKIIYPLLTPLKERLEAGERTPDLYNAIVEAT | 0.0804 |
| HMGETYTIPDVRGYTLEDAMELPEIKENGFTIIEGRQIVDADVPVGQIISQTPEAESIAKSNVKEITVNIS | 0.0323 |
| HMGEVPVETKDGIKVHVHTVDKSQTAYGISRLYNITLNELYESNPEAKLELSIGQKLYFPVK | -0.154 |
| HMGEVVRAPMPGNVLKMEVAQGQEVEEGDLLLVLEAMKMENDIVAPKGGIVIQLVVDKGMVVETDDPLVVI | 0.0323 |
| HMGEWNSVFSVPSSVVDKHLKTASSVYVKVLLVILRNAGNRISDQQISEQLSVPVDEVQEAIRYWNAAGIF | -0.247 |
| HMGFAANLSRLMEYHNISMYRLAKEVGVHQTTVKNWLEEESEPKIAALEKIVGLLGVSYDELLG | -4.56 |
| HMGFLTGNTQGEVNRKTKNQMVNIFLPTTPNPTSGFLLFVPKKDILRLTMTVEEGIKMIISAGMLTPS | -0.173 |
| HMGFTDREREIIRNDLVATGRELFGTFGLKKTSIEDLTKAVGIAQGSFYTFFNSKEELYLEVMDREGEA | -0.851 |
| HMGGALSPDFGWLAMIDPDEGRAITLYDIASGEAIAVLDTHEARVAALAWSPDGTRLASGDQNGLIVQWEI | -0.432 |
| HMGGEEPYGSGSLRLAAGAVVPSGYTIKGNEDSMLYHTTESPWYKQTIAEVWFNAESAAQRAGFTRWDAKD | -0.114 |
| HMGGEIGSGKNGYVAFYKGKKVDVKADSMYGAQKTAAKYFNAKKEYDVNVVLAEVDGKQYVQS | 0.343 |
| HMGGGVERLTPRQREVLGYMAEGRSNSWIAGAIGFSEKAVVQHTSKIYDALGLAVDADDHRRVLAVLRYLT | -1.44 |
| HMGGKWKLRILWHIHHGDTRFSTLKRGIPEISEKILAQQLRELEEHQLIKRRVVTVMPPHVVYEL | -2.28 |
| HMGGLAEIILNAIEIEGGFLPITDKSAPELIQSRLGMSKKAFKEAVGTLYKNRDIAIEPNGLRKI | 0.0577 |
| HMGGLALAEREVVEWLSQRNLLPSPDVVARAAAHPDGLGWLERSLAVLEGPRLFLGLGDLVPEP | -0.411 |
| HMGGLAVQLVHAMTDQIRSGRLKAGDKLPTEAAIMKDFGVSRTVVREAISRLQASGWVDTRHGIGTFVLHQ | -1.3 |
| HMGGLIEPLSARELEVLELMSLGKTNQEIARDLVVASGTIKAHAASIYRKLDAANRTEAVTHARELGIL | -0.0084 |
| HMGGPEVLELEDVKVGSPGPDEIKVTNHAIGLNYIDTYHRSGLYPLKLPSGIGLEAAGKVEEIGSNV | 0.0604 |
| HMGGQEEALNRLVLRELLGTLEKKERDLIVRRYFYDQTQTKIAEALGISQVQVSRMEKRILKKMREGF | -0.914 |
| HMGGRSARVRRAVLDAVVELLGEGGVRAVTIAEVAKRSGVNASSIYRRWRSIDALILDAAQDL | -1.81 |
| HMGGSDIYLGAFNIPQGSVRVTSGGQALTEGKDFTIDYNLGSVKIINQAILNSGIPVSVSYENNAG | 0.123 |

| Sequence | soluble fraction (log2) |
| --- | --- |
| HMGGSLADAKRFLADLLADGPVPAKGVRADADGAGHTWPTIRRAQKALGIEATKTGMKGGWVWALPR | -0.034 |
| HMGGSVYTVQKGDTLWSIAKEQLGSPLRYAEIYDLNKDVIEEAARGRGKKDSSNGHWLVVGTSLQIPEAT | 0.42 |
| HMGGTAGKINAIGVNFRTGPSTSYTSLGLLGKDTAVTVIGTSGKWYKVTIVSTGKTGYVYATYVNLTP | -1.81 |
| HMGGVIEDDRGQWAHPGEVTKINSNNITMKGVDFPVLGISDTGDKKMMQPGKDYKFDGNSVTEYPMA | -0.197 |
| HMGGWEEGVYVVREGDTLSDIVHDAVKGTEIHPDFILNAIVRVNPSAFVRGNPSWMLAGKKIK | -0.0469 |
| HMGGYVTGTIDLTKFGYAFVITEESEDDVFVAARNLNTALHGDQVKVLLYARHKGKRPEGEVVEIISRSRA | -1.11 |
| HMGHEEPITFDRLPQAAQTFLKTHFDTLTVAYIVADRKFMGVEYEVKYTDRTEVDFRSDGQWESV | 0.0592 |
| HMGHKTLTVELQEKIENLPQTLDKYNLTLGNNKMSVDYTYSVKEKQTGITNLLQDLKEHKFDIVYLVGQDN | 0.251 |
| HMGHLSNENAGRLLDRVLNDKIHAIMLGHLSKENNMPELAHEAVRMEITMGESRYKADDFPIYVA | 0.11 |
| HMGHTKLVVDIVEELKLEQGALLPILHAIQDELGYVPTKSVPFIADSLNLSRAEVHGVISFYHYFR | 0.15 |
| HMGIAWGMLREQVAASDVSYRSEVLDILDRTPVWIYDAEGKIVDGRKKRLMDLQGGEPYRHMLEHFFPDLR | -2.48 |
| HMGIDAIDNFVSKIIMKIEGLGESEVPTSTIGKFIMEGLQYLDTVAYVRYASVYKNFKEAKDFEQFVGSL | -0.179 |
| HMGIDRPLFTLAQFARQIGEQVKISLSLPQDGRRRLQGKVLSVGESGIVLDVDGREFTVAIGNVDKARL | -1.24 |
| HMGIDSSVYVEARYELGHLYLKQKKYAAAYASFKEILDMYASTTPGVLPGAYNKLAEIGMKRIPKNKL | -2.74 |
| HMGIIQAQIPGLVSRLFVKKGDKVAVNQRLFILEAMKMENEIDSPIQGMVEKIHITTGSKVEKGDLIMEIV | -0.323 |
| HMGIIYGKNPVLEAISSGTTINKIYAQTSNKEIDSVIKEALKRKIIVVNTDKQKLDKMIDGKNSQGIIASI | 0.317 |
| HMGIKAADIVTNDIQFNTQAQFDKYKDLYPTLGWGNYDPNKTYTMQGFKNKLKPNELFTGTPNLKIEDT | 0.141 |
| HMGIKDRIVYIMEKEKLSIPLFAKKIGIGPSTLLHIIRGKNAPSLQVVQAIHKAYPDIDLNWLI | -1.08 |
| HMGIKSSASLQEAAEKAQSAYYDIEHSGVATAVDIQRAWVAMVAAQIDAGEKLDSGTITLYERLKTST | 0.0423 |
| HMGIMNFDTWLKSLPGTPTPTIAAKKSGLAAPTLLRHVERGYSTADNVIAIAKAYGVSPIDALVDNGML | -0.695 |
| HMGIMSEITHRVLRLLGLLESRSTWTGSDLAERLGVTQRTIRRDVIRLRELGYQVDSVQGLDGGYRMS | -2.48 |
| HMGIPVSIGQLDFNQARGNLALQVRASDFAALEQLRQRLGQTGESVQLGSASRDGDAVSARVVIGGQ | -0.015 |
| HMGIQQNHMTLHARSVASSANVPAEHFDTLVEKLIESGDIKVWKAREILMNLSRQHEEILDES | 0.0119 |
| HMGISGSDLEKMIRNILVNNTDVVETIKSGQDKKGKKQKFLQGLIMKEARGQTDPREAASLLAKLLE | -0.0715 |
| HMGITMFGQNLKKLRTSKNLSQSKLSKILGISSSTIGMYEQGRRFPDQTILTKIADFFDVSTDYLLGR | -0.268 |
| HMGIVAQLPTIRVNGKTLYYYDAQSGDNIYSIAEKLGVTVEDIRANNPGVADGVKPRMRLFFPTSLAK | 0.165 |
| HMGIVYGVIKENWDQDHPGMVKVEILQGESGKNVSDWIPVMSPYAGKEFGAYALPEIGTQAVVAFE | -0.0355 |
